According to publication PMC4499158, “Outwitting EF-Tu and the ribosome: translation with d-amino acids”:

Biological target: EF-Tu (GTP form) (Escherichia coli K12 MG1655, UniProt P0CE47 1-394)
Test: EMSA; GTP; L-Gln-tRNA; Native PAGE EMSA; EF-Tu preincubated with GTP, phosphoenol pyruvate and pyruvate kinase, 20 µl reactions, 3'-32P aminoacyl-tRNA; buffer, salt, pH and temperature not in the material
Details: protein: recombinant; tags: StrepTag or TwinStrep-Tag; label: 3' 32P; tRNA cloverleaf

Sequence of EF-Tu (GTP form) (P0CE47 whole entry): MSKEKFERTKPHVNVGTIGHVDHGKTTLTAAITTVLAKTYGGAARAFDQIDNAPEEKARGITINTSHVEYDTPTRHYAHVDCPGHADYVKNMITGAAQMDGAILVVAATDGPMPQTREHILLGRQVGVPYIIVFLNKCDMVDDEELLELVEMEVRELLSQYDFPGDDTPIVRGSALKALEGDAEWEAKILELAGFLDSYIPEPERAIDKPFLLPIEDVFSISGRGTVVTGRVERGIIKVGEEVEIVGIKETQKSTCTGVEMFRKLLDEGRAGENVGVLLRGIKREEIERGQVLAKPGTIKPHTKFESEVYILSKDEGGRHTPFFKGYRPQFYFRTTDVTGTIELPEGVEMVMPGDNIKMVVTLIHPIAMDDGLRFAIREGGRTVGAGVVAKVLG

B1: tRNAGly tp (structured_RNA)
RNA: GCGGGCGUAGUUCAAUGGUAGAACGAGAGCUUCCCAAGCUCUAUACGAAGGUUCGAUUCCUUCCGCCCGCUCCA
modifications: 3'-aminoacyl as per row
- binding result: binds
